Results on ten proteins are retold here after publication doi:10.64898/2025.12.11.693622 (bioRxiv, 2025).

Several values for one entry are separate records, joined by “and”; a condition that tells them apart may be missing. Equal entries are not always repeated.

The data set “SEC-MALS” concerns the molecule itself. Nature of the data set: SEC-MALS. On the technique in general: In gel filtration, larger molecules generally elute earlier.
The data set “cross-linking” deals with the molecule itself. Nature of the data set: cross-linking.
The data set “crystal structure” concerns the molecule itself. In words: crystal structure.
The data set “AUC + SEC” concerns the molecule itself. Nature of the data set: AUC + SEC.

By stoichiometry N is commonly meant the number of molecules, sites or subunits per partner or assembly.

B1: MBP-tagged complete IMS domain of CCDC127, C144S with L176S/F177S/V222S/W223S (MBP-CC-CHB^C144STip, residues 48-260) (domain or fragment, human, UniProt Q96BQ5 48-260, looked up)
chain: SQKEVEKEREAYRRRTAAFQQDLEAKYHAMISENRRAVAQLSLELEKEQNRTASYREALISQGRKLVEEKKLLEQERAQVMQEKRQVQPLRSAYLSSLQREENWQRRARLLLKEFEAVLTERQNIYCSSSLPRSKRLEIEKSLLVRASVDPVAADLEMAAGLTDIFQHDTYCGDSSNTNKRQNGRLMWLYLKYWELVVELKKFKRVEEAILEK
B1: in “SEC-MALS”, the “stoichiometry N” value was in the range of 2 to 3.

B2: MBP-tagged complete IMS domain of CCDC127, C144S (MBP-CC-CHB^C144S, residues 48-260) (domain or fragment, human, UniProt Q96BQ5 48-260, looked up)
chain: SQKEVEKEREAYRRRTAAFQQDLEAKYHAMISENRRAVAQLSLELEKEQNRTASYREALISQGRKLVEEKKLLEQERAQVMQEKRQVQPLRSAYLSSLQREENWQRRARLLLKEFEAVLTERQNIYCSLFLPRSKRLEIEKSLLVRASVDPVAADLEMAAGLTDIFQHDTYCGDVWNTNKRQNGRLMWLYLKYWELVVELKKFKRVEEAILEK
In the case of B2, the “stoichiometry N” value in the data set “SEC-MALS” amounted to 2.

B3: MBP-tagged C-terminal helical bundle of CCDC127, C144S variant (MBP-CHB^C144S, residues 137-260) (domain or fragment, human, UniProt Q96BQ5 137-260, looked up)
chain: LRSAYLSSLQREENWQRRARLLLKEFEAVLTERQNIYCSLFLPRSKRLEIEKSLLVRASVDPVAADLEMAAGLTDIFQHDTYCGDVWNTNKRQNGRLMWLYLKYWELVVELKKFKRVEEAILEK
In the case of B3, the “stoichiometry N” value in “SEC-MALS” stood at 2.

B4: MBP-tagged C-terminal helical bundle of CCDC127, C144S with L176S/F177S/V222S/W223S (MBP-CHB^C144STip, residues 137-260) (domain or fragment, human, UniProt Q96BQ5 137-260, looked up)
chain: LRSAYLSSLQREENWQRRARLLLKEFEAVLTERQNIYCSSSLPRSKRLEIEKSLLVRASVDPVAADLEMAAGLTDIFQHDTYCGDSSNTNKRQNGRLMWLYLKYWELVVELKKFKRVEEAILEK
For the protein B4, the “stoichiometry N” value in “SEC-MALS” was 2.

B5: CCDC127 WT-HA (full-length CCDC127 with HA tag) (natural protein, human, UniProt Q96BQ5 1-260, looked up)
chain: MNNLNDPPNWNIRPNSRADGGDGSRWNYALLVPMLGLAAFRWIWSRESQKEVEKEREAYRRRTAAFQQDLEAKYHAMISENRRAVAQLSLELEKEQNRTASYREALISQGRKLVEEKKLLEQERAQVMQEKRQVQPLRSAYLSCLQREENWQRRARLLLKEFEAVLTERQNIYCSLFLPRSKRLEIEKSLLVRASVDPVAADLEMAAGLTDIFQHDTYCGDVWNTNKRQNGRLMWLYLKYWELVVELKKFKRVEEAILEK
Consider B5, for which the “stoichiometry N” value in the data set “cross-linking” came to 2.

B6: CCDC127 coiled-coil domain (CCDC127^CC, residues 48-120), wild type (domain or fragment, human, UniProt Q96BQ5 48-120, looked up)
chain: SQKEVEKEREAYRRRTAAFQQDLEAKYHAMISENRRAVAQLSLELEKEQNRTASYREALISQGRKLVEEKKLL
Consider B6, for which the “stoichiometry N” value in “crystal structure” was 2 and 4.

B7: CCDC127^CC-K73A (residues 48-120) (domain or fragment, human, UniProt Q96BQ5 48-120, looked up)
chain: SQKEVEKEREAYRRRTAAFQQDLEAAYHAMISENRRAVAQLSLELEKEQNRTASYREALISQGRKLVEEKKLL
In the case of B7, the “stoichiometry N” value in the data set “AUC + SEC” worked out at 4.

B8: CCDC127^CC D69A (residues 48-120) (domain or fragment, human, UniProt Q96BQ5 48-120, looked up)
chain: SQKEVEKEREAYRRRTAAFQQALEAKYHAMISENRRAVAQLSLELEKEQNRTASYREALISQGRKLVEEKKLL
For the protein B8, the “stoichiometry N” value in “AUC + SEC” turned out to be 2.

B9: CCDC127^135-260-HA (C-terminal helical bundle domain) (domain or fragment, human, UniProt Q96BQ5 135-260, looked up)
chain: QPLRSAYLSCLQREENWQRRARLLLKEFEAVLTERQNIYCSLFLPRSKRLEIEKSLLVRASVDPVAADLEMAAGLTDIFQHDTYCGDVWNTNKRQNGRLMWLYLKYWELVVELKKFKRVEEAILEK
As to B9, the “stoichiometry N” value in the data set “cross-linking” came to 2.

B10: CCDC127^1-134-HA (N-terminal variant with the coiled-coil, lacking the C-terminal domain) (domain or fragment, human, UniProt Q96BQ5 1-134, looked up)
chain: MNNLNDPPNWNIRPNSRADGGDGSRWNYALLVPMLGLAAFRWIWSRESQKEVEKEREAYRRRTAAFQQDLEAKYHAMISENRRAVAQLSLELEKEQNRTASYREALISQGRKLVEEKKLLEQERAQVMQEKRQV
Take B10: the “stoichiometry N” value in the data set “cross-linking” is 2.
